Assay results: publication PMC6005192

Biological target: bacteriophage λ holin S105, allele S105τ94 (internal G2H6G2 tag) (bacteriophage λ)
Experiment: cryo-EM structure

bacteriophage λ holin S105, allele S105τ94 (internal G2H6G2 tag) (natural protein)
stoichiometry N: 72
